This passage reports IC50 and cross-reactivity (IC50 of FPB divided by IC50 of des-arg FPB times 100) results from patent US20040086947A1.

Substrate in experiment [1]: FPB antiserum (rabbit polyclonal antiserum to human fibrinopeptide B, R4097, bleed I3)
The experiment can be described thus: competitive ELISA; des-arg FPB in solution against FPB antiserum binding to FPB-coated wells. (In general: In an ELISA, binding on a coated surface is turned into a signal by an enzyme label.)

Substrate in experiment [2]: FPB antiserum (rabbit polyclonal antiserum to human fibrinopeptide B, R4097, bleed I3)
The experiment can be described thus: competitive ELISA; reference synthetic FPB.

Substrate in experiment [3]: FPB antiserum (rabbit polyclonal antiserum to human fibrinopeptide B, R4097, bleed I3)
The experiment is described as follows: competitive ELISA; synthetic FPB in solution against FPB antiserum binding to FPB-coated wells.

No end group written: not given here.

One may read the IC50 as the midpoint of a concentration-inhibition curve. Take QGVNDNEEGFFSA (also: N-terminal Gln or pyroglutamic acid not given here) [synthetic des-arginine fibrinopeptide B (des-arg FPB)]: the IC50 in experiment [1] stood at 8.9 nM. For the same molecule, the cross-reactivity (IC50 of FPB divided by IC50 of des-arg FPB times 100) in experiment [2] turned out to be 75%.

Turning to QGVNDNEEGFFSAR (also: N-terminal Gln or pyroglutamic acid not given here) [synthetic human fibrinopeptide B (FPB)], the concentration for half-maximal inhibition (IC50) in experiment [3] is 6.7 nM.
